These results are taken from paper PMC3064236.

The test deals with Mcm2-7 heterohexamer (X. laevis (endogenous in egg extract)) (UniProt P55861). As to the kind of experiment: SEC + other: glycerol gradient sedimentation.

With “Mcm2-7 heterohexamer, P55861 1-886; P49739 1-807; P30664 1-863; P55862 1-735; Q5FWY4 1-821; Q91876 1-720”, the stoichiometry N (hexamers in the complex) was determined as 2.
